Data reported in article PMC10583550.

Target: NtFD1-Flag (Nicotiana tabacum)
Experiment: native gel or EMSA; extract of N. benthamiana leaves expressing NtFD1-Flag loaded directly onto a native PAGE gel, then western blotting; native protein marker GAPDH used for size

stoichiometry N: 4
Substance: NtFD1-Flag (natural protein)
